{
  "source": "patent US20050249735A1",
  "molecules": {"B1": {"name": "chimeric mouse/human IgG1 anti-platelet mAb (7E3) (antibody, INN chains, looked up, V domains shown)", "VH": "EVQLQQSGTVLARPGASVKMSCEASGYTFTNYWMHWVKQRPGQGLEWIGAIYPGNSDTSYIQKFKGKAKLTAVTSTTSVYMELSSLTNEDSAVYYCTLYDGYYVFAYWGQGTLVTVSA", "VL": "EIVLTQSPVTLSVTPGDSVSLSCRASRDISNNLHWFQQTSHESPRLLIKYASQSMSGIPSRFSGSGSGTDFTLSINSVETEDFGMYFCQQTNSWPYTFGGGTKLEIK", "modifications": "full IgG1"}},
  "key": {"[1]": {"molecular_target": "human lymphotoxin (TNFβ) (human) (UniProt P01374)", "sequence (P01374 35-205 limits assumed)": "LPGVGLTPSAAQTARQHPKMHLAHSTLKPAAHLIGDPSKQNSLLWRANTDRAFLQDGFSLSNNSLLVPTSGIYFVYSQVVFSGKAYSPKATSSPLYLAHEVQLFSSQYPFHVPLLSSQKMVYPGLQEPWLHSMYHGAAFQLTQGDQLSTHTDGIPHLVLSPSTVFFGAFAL", "experiment": "cell-based or functional assay"}, "[2]": {"molecular_target": "human tumor necrosis factor-alpha (TNFα) (human) (UniProt P01375)", "sequence (P01375 77-233)": "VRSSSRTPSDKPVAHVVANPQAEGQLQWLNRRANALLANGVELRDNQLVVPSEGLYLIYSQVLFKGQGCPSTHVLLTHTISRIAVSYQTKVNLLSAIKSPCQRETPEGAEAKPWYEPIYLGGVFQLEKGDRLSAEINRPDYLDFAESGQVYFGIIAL", "experiment": "cell-based or functional assay"}},
  "data": [
    {"molecule": "p55-sf2 (p55 TNF receptor / IgG1 heavy chain single fusion with truncated light chain JCK) (from UniProt P01857 1-330) (Fc fusion)", "values": [
      {"measurement": "amount needed for the same degree of inhibition of TNFβ cytotoxicity, against p75P-sf2", "setting": "[1]", "value": 3, "unit": "fold"}
    ]},
    {"molecule": "p75P-sf2 (p75 heavy chain fusion lacking the C-terminal 53 amino acids of the p75 extracellular domain) (from UniProt P20333 23-204; P01857 1-330) (Fc fusion)", "values": [
      {"measurement": "concentration to half-inhibit human TNFβ at 2 pM, WEHI 164 cytotoxicity", "setting": "[1]", "value": 31, "unit": "pM"}
    ]},
    {"molecule": "p75-sf2 (complete extracellular domain of p75 fused to the heavy chain) (from UniProt P20333 23-257; P01857 1-330) (Fc fusion)", "values": [
      {"measurement": "amount needed for the same degree of inhibition of TNFβ cytotoxicity, against p75P-sf2", "setting": "[1]", "value": 3, "unit": "fold"}
    ]},
    {"molecule": "B1", "values": [
      {"measurement": "IL-6 in supernatant of FS-4 fibroblasts, rhTNF 0.3 ng/ml, 4 µg/ml antibody", "setting": "[2]", "value": 1.6, "unit": "ng/mL"},
      {"measurement": "IL-6 in supernatant of FS-4 fibroblasts, rhTNF 1.5 ng/ml, 4 µg/ml antibody", "setting": "[2]", "value": 1.96, "unit": "ng/mL"},
      {"measurement": "IL-6 in supernatant of FS-4 fibroblasts, rhTNF 7.5 ng/ml, 4 µg/ml antibody", "setting": "[2]", "value": 2.16, "unit": "ng/mL"}
    ]}
  ]
}
